The results in this text go back to paper PMC4666033, “A novel bifunctional GH51 exo-α-L-arabinofuranosidase/endo-xylanase from Alicyclobacillus sp. A4 with significant biomass-degrading capacity” (Biotechnology for Biofuels, 2015).

As usually defined, the Km is the substrate concentration at which the rate is half of its maximum. What is called kcat is the number of substrate molecules converted per active site and unit of time at saturation.

Substrate in the data set: O=[N+]([O-])c1ccc(O[C@@H]2O[C@@H](CO)[C@H](O)[C@H]2O)cc1
Put plainly: purified protein. It counts as biochemical, Alicyclobacillus sp. A4. The conditions noted are these: pH 6.0, McIlvaine buffer, 60 °C, 5 min, substrate 1-10 mM.

B1: Ac-Abf51A (Alicyclobacillus sp. A4) (protein)
chain: MSKSIARMTIDPQYQLADVDPRLFGSFIEHLGRAVYGGIYEPDHPSADEMGFRQDVLELVRELQVPIVRYPGGNFVSGYRWEDGVGPLASRPAQLDLAWRSLEPNRVGVNEFVEWAKRANSEVMMAVNLGTRGIDEAKQIVEYCNHPGGSYWSDLRKSHGYEQPHGIKVWCLGNEMDGPWQIGHKTAEEYGRIAEEAAKVMKWVDPSIELVACGSSGSKMPTFPDWERIVLEHTYDHVEYISMHSYYGNRENDLATYLAQSLDMDHFIRSVIATCDYVKAKKRSKKTINISFDEWNVWFHSNEADKQVAPWQVGPPLLEDVYTFEDALVVGCLLITLLRHADRVKMACLAQLVNVIAPIMTENGGVSWKQTIYYPFLHASRYGRGKVMHCSLQSPKYDCKEFTDVPLVESVAVWNQDIAELTIFAVNRSQDGGIELECDIRGFAQASVIEHTVLVHSDLKAANTKEEPQEVIPQHAQGAKVDGGLLFAPLPKLSWNVIRLRV
notes: no signal peptide; pET-30a(+) NdeI/NotI, C-terminal His tag inferred from cloning; E. coli BL21(DE3); Ni-NTA
Take B1: the Km was determined as 460 µM and the kcat came out at 23.0 s⁻¹.
